{"source": "paper PMC3794156", "about": "“Structure of the ParM filament at 8.5 Å resolution” (Journal of Structural Biology, 2013)", "proteins": {"B1": {"name": "ParM (actin-like protein of the ParMRC system of Escherichia coli R1 plasmid), wild type (natural protein)", "chain": "MLVFIDDGSTNIKLQWQESDGTIKQHISPNSFKREWAVSFGDKKVFNYTLNGEQYSFDPISPDAVVTTNIAWQYSDVNVVAVHHALLTSGLPVSEVDIVCTLPLTEYYDRNNQPNTENIERKKANFRKKITLNGGDTFTIKDVKVMPESIPAGYEVLQELDELDSLLIIDLGGTTLDISQVMGKLSGISKIYGDSSLGVSLVTSAVKDALSLARTKGSSYLADDIIIHRKDNNYLKQRINDENKISIVTEAMNEALRKLEQRVLNTLNEFSGYTHVMVIGGGAELICDAVKKHTQIRDERFFKTNNSQYDLVNGMYLIGN", "notes": "ParM, plasmid segregation protein of actin fold, encoded by Escherichia coli R1 plasmid; Forms double-helical filaments of two protofilaments with AMPPNP or ATP; also called ParM protein; wild type protein; source: E. coli BL21-AI, plasmid pJSC1, in cell lysate for the polymerisation assay"}}, "molecular_target": "the molecule itself", "assay": "cryo-EM structure; 30 uM ParM in polymerisation buffer (30 mM Tris-HCl, 25 mM KCl, 2 mM MgCl2, 1 mM DTT, pH 7.5) with 5 mM AMPPNP, 5 min at room temperature; filaments spun down and resuspended; helical reconstruction at 8.5 Å", "data": [{"protein": "B1", "values": [{"measurement": "binding result", "result": "binds"}]}]}
